{
  "source": "paper PMC8850444",
  "about": "“The lipid components of high-density lipoproteins (HDL) are essential for the binding and transportation of antimicrobial peptides in human serum” (Scientific Reports, 2022)",
  "proteins": {"B1": {"name": "apolipoprotein A-II (Apo-AII) of human serum (natural protein)", "chain": "not shown", "notes": "Dimeric under non-reducing conditions; In serum it stands in HDL particles together with lipids; also called 17 kDa protein; source: endogenous, crude human serum"}},
  "target": "the molecule itself",
  "experiment": "non-reducing SDS-PAGE; serum proteins pulled down by immobilised LL37, 15% non-reducing SDS-PAGE, Coomassie; monomer to dimer",
  "data": [
    {"protein": "B1", "values": [
      {"measurement": "stoichiometry N", "result": 2}
    ]}
  ]
}
